One test deals with MDA-MB-231 cells. The test is described as follows: FabZAP antibody internalization assay, MDA-MB-231. The settings on record: MDA-MB-231, 3 days. It is filed as cell-based, human. How it is done:
Internalization of MEDI9447 into cell lines MDA-MB-231 (human mammary carcinoma) and 4T1 (murine mammary carcinoma) was assessed using a human Antibody Internalization Kit that is sold commercially as the FabZAP assay (Advanced Targeting Systems, San Diego Calif.). Serial dilutions of MEDI9447 or negative control antibody R347 were pre-incubated with 40 nM FabZAP reagent (Fab fragment of a polyclonal anti-human IgG antibody conjugated to the cytotoxic protein saporin) and then added to the cell lines. After 3 days in culture, cell proliferation was measured using a luminescent cell viability assay sold commercially as the CELLTITER-GLO® assay (Promega, Madison Wis.). This assay was used to calculate EC50 values and maximum toxicity. […]
Cell proliferation of MDA-MB-231 cells and 4T1 cells treated with serial dilutions of test antibody and FabZAP reagent was measured by CELLTITER-GLO® assay (FIG. 2). The signal from the negative control antibody R347 in the CELLTITER-GLO® assay was subtracted from the signal of MEDI9447 and the EC50 value and maximum toxicity were calculated by fitting the dose-response curve using non-linear regression analysis.
1,000 cells/well were cultured in 96 well plates in RPMI/10% FBS. […] After 3 days incubation at 37C, the cell proliferation was measured using the CELLTITER-GLO® assay (Promega, Madison Wis.).

The target of test [1] is T1, native CD73, MDA-MB-231 cells (Homo sapiens, UniProt P21589).
T1 construct: native CD73 expressed on human, murine, and cynomolgus monkey cell lines; endogenous in cells; host or cells: MDA-MB-231
T1 sequence (P21589 27-549): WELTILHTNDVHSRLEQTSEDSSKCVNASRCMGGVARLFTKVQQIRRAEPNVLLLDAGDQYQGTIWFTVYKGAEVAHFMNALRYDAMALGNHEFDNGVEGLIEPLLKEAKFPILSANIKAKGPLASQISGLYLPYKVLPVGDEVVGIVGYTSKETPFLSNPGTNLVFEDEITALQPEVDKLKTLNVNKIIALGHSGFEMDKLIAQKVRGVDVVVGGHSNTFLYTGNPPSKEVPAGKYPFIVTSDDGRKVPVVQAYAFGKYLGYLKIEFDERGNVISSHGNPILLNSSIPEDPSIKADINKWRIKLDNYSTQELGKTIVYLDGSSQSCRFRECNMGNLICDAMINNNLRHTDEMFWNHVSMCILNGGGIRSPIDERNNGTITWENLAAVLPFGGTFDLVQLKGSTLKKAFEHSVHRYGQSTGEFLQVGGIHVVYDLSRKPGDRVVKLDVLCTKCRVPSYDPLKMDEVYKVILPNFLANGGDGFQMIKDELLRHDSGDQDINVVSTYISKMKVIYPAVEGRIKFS
The test is described as follows: Flow cytometry binding to native CD73, MDA-MB-231 cells. The method, then:
Binding of MEDI9447 to native CD73 expressed on human, murine, and cynomolgus monkey cell lines was characterized by flow cytometry. The cells were incubated with various concentrations of MEDI9447 and antibody binding was monitored with and fluorophore-labeled anti-human Fc antibody. A plot of the median fluorescence intensity as a function of the MEDI9447 concentration was fitted nonlinearly using a one-site binding isotherm model to calculate the equilibrium dissociation constant.
(§1) The affinity of enhanced anti-CD73 antibodies (in IgG1-TM format) to human, murine, and cynomolgus CD73 was determined by flow cytometry and surface plasmon resonsance (SPR) (Table 13). The enhanced antibodies had pM affinity to cellular and recombinant CD73 from the three species.
All flow cytometry experiments were run at 4C and reagents were prepared in PBS/1% FBS buffer. 10,000 cells were incubated with test antibody in 50 uL volume for 4 hours. Cells were washed twice and incubated in 50 uL goat anti-human IgGFc-AlexaFluor647 conjugate for 15 minutes. Cells were washed, resuspended in buffer supplemented with Dapi, and analyzed on a flow cytometer. […] For the determination of KD values, a plot of the median fluorescence intensity as a function of test antibody concentration was fitted nonlinearly using a one site binding isotherm model.
(In general: In flow cytometry, cells or beads pass a laser one at a time.)

The test system of test [2] is CT26 murine syngeneic tumors. The test is described as follows: CT26 syngeneic tumor model, MEDI9447 monotherapy. It is filed as in vivo, Balb/C mice. How it is done: CT26 cells, which are derived from a murine colon cancer, were established by subcutaneous (SC) injection of 5×10^5 cells suspended in 0.1 mL of PBS into the right flanks of 4-to-6-week-old female mice. The mice were treated with MEDI9447 or with a control antibody.
10 mice per group were used in this study. Animals were randomly assigned into groups. Animals in Group 1 were untreated and Group 2 was administered an isotype control. MEDI9447 was administered to Group 3. Test articles were administered intraperitoneally twice weekly starting on Day 3. On Day 16, 5 animals from each group were necropsied and tumors were isolated.
Tumors were measured on Days 1, 7, 9, 12, 14, and 16 by caliper, and the volumes of tumors were calculated as follows: […] (1) The anticancer effects of MEDI9447 were expressed as percent tumor growth inhibition, which was calculated as follows: (Average tumor volume for MEDI9447/Average tumor volume for R347-TM)×100 (2)
Tumors were isolated for flow cytometry. Tumors were dissected from CT26 tumor-bearing mice on study Day 16. Tumors were cut into small pieces and were digested with collagenase. […] Dissociated cells were pelleted at 1000 rpm for 5 minutes at 4° C. and were re-suspended in fluorescence-activated cell sorting (FACS) buffer. Cells were counted on Vi-Cell using the default setting. […]

In the next test the target is T2, human CD73 ECD (Homo sapiens, UniProt P21589).
T2 construct: made in house; host or cells: mammalian cells
T2 sequence (P21589 27-549 limits assumed): T1 sequence (P21589 27-549)
The test is described as follows: Surface plasmon resonance (ProteOn), human CD73. It is filed as binding. Particulars: SPR. How it is done: A ProteOn XPR36 instrument was used to characterize binding of MEDI9447 to human, murine, and cynomolgus CD73 ECD. MEDI9447 was affinity-captured using an anti-human Fc antibody. CD73 ECD was in the mobile phase. The association and dissociation of CD73 to MEDI9447 could be accurately described with the Langmuir 1:1 model.
as §1
(In general: Surface plasmon resonance follows binding to a sensor surface in real time, without labels.)

Substance “MEDI9447: IgG1 with CD730010-derived VL of SEQ ID NO: 68 and VH of SEQ ID NO: 82” had a maximum toxicity in the test on MDA-MB-231 cells of 97%. In test [1] (as measured by flow cytometry, read-out: KD, CD73 on the surface of MB-MDA-231 cells), the Kd was approximately 0.15 nM. Moreover, the “KD values by flow cytometry, fold greater than those determined by SPR” value in test [1] (human, murine and cynomolgus CD73) was 13—126 fold. Moreover, the tumor growth result in test [2] (CT26, Balb/C mice, 10 mg/kg IP 2X weekly) is “inhibited tumor growth”. In addition, in test [2] (CT26 tumors harvested study Day 16, flow cytometry), the “proportion of tumor-infiltrating MDSCs” value is reported as “reduced”. In the test with human CD73 ECD (Human CD73 ECD), this substance had a kd of 1.06e-05 s⁻¹. This substance displayed a ka in the test with human CD73 ECD (antibody captured, Human CD73 ECD in mobile phase) of 2.57e+06 M⁻¹ s⁻¹.

Broadly, the Kd is the equilibrium constant for the complex coming apart.

Source of the values: patent US10864269B2, “Therapeutic combinations comprising anti-CD73 antibodies and uses thereof” (MedImmune Limited, priority 2014, dated 2020).
